These results are taken from patent US20100233095A1 (ADLYFE, published 2010).

In experiment [1] the target is T1, Aβ42 oligomer (soluble Aβ42 target protein oligomers) (UniProt P05067 672-713).
T1 construct: domain: Aβ1-42; Soluble oligomeric aggregate; also called synthetic Aβ42 oligomer
Kind of experiment: pyrene fluorescence of di-pyrene Peptide 45 with 0, 0.03, 0.1 and 0.3 µM Aβ42 oligomer; free peptide 9:1.

In experiment [2] the target is T2, biotinylated Aβ 42 oligomer (UniProt P05067 672-713, biotin (site not stated)).
T2 construct: domain: Aβ1-42; Captured on streptavidin-coated magnetic beads; also called biotin-labeled soluble Aβ42 target protein oligomers; synthetic biotinylated oligomer
T2 sequence (P05067 672-713 limits assumed): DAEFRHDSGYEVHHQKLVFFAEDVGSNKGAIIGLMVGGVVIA
As to the kind of experiment: streptavidin bead capture of biotinylated oligomer, SDS-PAGE. Here is the method:
Labeled peptide probe (SEQ ID NO:1, 2 μM) and biotinylated target protein (Aβ 42 oligomers, 2 μM) are incubated in PBS for 30 minutes. The mixture is then subjected to a capture step using magnetic beads coated with streptavidin. The beads are washed with PBS to remove unbound material and the captured material is analyzed by SDS-PAGE.

Experiment [3] has as its target T1, Aβ42 oligomer (soluble Aβ42 target …). Kind of experiment: G25 size exclusion spin column, fluorescence of the eluant; 2 µM probe, 2 µM oligomer. Here is the method: Labeled peptide probe (SEQ ID NO:1, 2 μM) and target protein (Aβ oligomers, 2 μM) are incubated together for 90 minutes in Hepes buffer (10 mM, pH 7.0) and then loaded onto a G25 size exclusion column, which has a 5000 Da molecular weight cutoff. The column is subjected to centrifugation at 735×g for 2 minutes. Eluants and column material are analyzed by a TECAN fluorimeter. This method is illustrated in FIG. 14A. Eluant also may be analyzed by SDS-PAGE (not shown).
(Size exclusion chromatography separates by hydrodynamic size, large species first.)

The target in experiment [4] is T3, Aβ42 Fiber (insoluble Aβ42 target protein fibers) (UniProt P05067 672-713).
T3 construct: domain: Aβ1-42; Insoluble fibrillar aggregate of Aβ42; also called Aβ 1-42 fiber; Aβ42 fibers
T3 sequence (P05067 672-713 limits assumed): as above
As to the kind of experiment: centrifugation of insoluble fibers with soluble probe, SDS-PAGE of the pellet, 40% TFE. As for the experimental part: Aβ42 Fiber (target protein) and peptide probe (SEQ ID NO:1) are incubated for 3 hours in the presence of increasing amounts of trifluoroethanol (TFE). The samples are centrifuged at 17,000×g for 30 minutes, and the pellets are denatured in sample buffer and analyzed by SDS-PAGE. Reference samples (Input) are shown for comparison. In this example, binding of target protein and peptide probe is clearly observed at the 40% TFE condition (compare left and right panels at 40% TFE, where the “peptide” band appears in the left panel but not the right panel).

For experiment [5], the target named is T1, Aβ42 oligomer (soluble Aβ42 target …). As to the kind of experiment: pyrene fluorescence, aqueous assay; transition from excimer to self-fluorescence.
Experiment [6] addresses T4, streptavidin (on magnetic dynabeads) (UniProt P22629 37-163, limits assumed).
T4 construct: Capture reagent; also called streptavidin bead; magnetic streptavidin beads
As to the kind of experiment: streptavidin bead pull-down (protocol B) without biotinylated oligomer, SDS-PAGE. Here is the method: In an alternative assay with Peptide 22 (protocol B, illustrated in FIG. 5A), […] biotinylated Aβ 42 oligomer was incubated with pre-washed streptavidin dynabeads at room temperature for 30 minutes. The complex was then washed two times with PBS buffer, and resuspended in PBS buffer. Equal volumes of bound oligomer and 4 μM labeled peptide probe (SEQ ID NO:2) were then combined, and incubated for 30 minutes at room temperature. Unbound material was then washed away with three PBS washes, followed by the collection of the bead complexes by magnet. The complex was then resuspended in 1×LDS buffer, boiled for 10 minutes, and loaded on 10% Bis-Tris gels.

Experiment [7] has as its target T5, bovine serum albumin (control substrate) (bovine, UniProt P02769 25-607).
T5 construct: also called BSA
Kind of experiment: pyrene monomer fluorescence of di-pyrene Peptide 22 over time, in water, substrate 0.03-0.3 uM. As for the experimental part: FIG. 12 illustrates the specificity of Peptide 22 (SEQ ID NO:2) for soluble Aβ oligomers. The first two panels show the dose-dependent increase in pyrene monomer signal when Peptide 22 is incubated with soluble Aβ oligomers prepared by two different methods. The next two panels show no change in fluorescence when Peptide 22 is incubated with Aβ40 monomers and Aβ42 monomers. […] The last two panels show no change in fluorescence when Peptide 22 is incubated with control solutions (BSA or Anhydrase). […] (dotted line=0.3 uM substrate; dashed line=0.1 uM; dashed/dot line=0.03 uM; solid line=p22 alone).
Peptide 22 (100 nM) is incubated in water for 15 hours at room temperature with equimolar concentrations ([…]) of several potential A0 substrates: Aβ42 oligomer (type 1); Aβ42 oligomer (type 2); Aβ 1-42 monomer; Aβ 1-40 monomer; Aβ 1-42 fiber; Aβ 1-40 fiber; bovine serum albumin (control substrate); and carbonic anhydrase (control substrate).

pyrene = pyrene (fluorescent label); PBA = not defined here

T1 sequence (P05067 672-713 limits assumed): as above
T4 sequence (P22629 37-163 limits assumed): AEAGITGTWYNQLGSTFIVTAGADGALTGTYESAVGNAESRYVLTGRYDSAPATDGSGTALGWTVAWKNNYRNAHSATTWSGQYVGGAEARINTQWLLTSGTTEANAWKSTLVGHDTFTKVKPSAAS
T5 sequence (P02769 25-607 limits assumed): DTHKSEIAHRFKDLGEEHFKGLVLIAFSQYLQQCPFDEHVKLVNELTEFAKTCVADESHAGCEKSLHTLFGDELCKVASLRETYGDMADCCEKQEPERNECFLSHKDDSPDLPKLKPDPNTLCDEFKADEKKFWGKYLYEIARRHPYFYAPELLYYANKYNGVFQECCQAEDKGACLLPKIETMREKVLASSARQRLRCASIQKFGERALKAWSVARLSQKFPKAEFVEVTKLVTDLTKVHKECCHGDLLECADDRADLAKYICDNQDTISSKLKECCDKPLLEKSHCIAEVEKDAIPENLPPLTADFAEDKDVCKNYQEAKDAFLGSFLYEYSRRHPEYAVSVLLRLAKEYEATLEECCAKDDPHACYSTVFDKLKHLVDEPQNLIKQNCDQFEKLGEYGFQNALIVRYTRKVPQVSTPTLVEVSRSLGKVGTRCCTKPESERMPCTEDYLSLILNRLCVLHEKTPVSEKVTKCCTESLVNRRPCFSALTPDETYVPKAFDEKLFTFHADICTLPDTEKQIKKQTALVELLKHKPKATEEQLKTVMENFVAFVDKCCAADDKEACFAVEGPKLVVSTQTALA

Turning to pyrene-KAAAKLVFFAEDVGSNKHAIIELMK-NH2 (not fully specified (residue 25), also called P45) [Peptide 45 (SEQ ID NO:4)], in experiment [1], the “excimer:monomer fluorescence ratio” value was 20 ratio (x:1).

B1: peptide probe of SEQ ID NO:1 (WT reference sequence, Aβ protein residues 16-35 with added C-terminal Lys) (peptide)
peptide: {PBA}-KLVFFAEDVGSNKGAIIGLMK(PBA)-NH2
modifications: reading uncertain; also: labels are the default, some assays say only 'labeled', centrifugation assay may use unlabeled peptide
notes: Synthetic probe; also called wildtype
For the molecule B1, the binding result in experiment [2], in experiment [3] and in experiment [4] was “binds” each time.
pyrene-KLVFFAEDVGSNKKAIIELMK(pyrene)-NH2 (also called P22 v.2; Peptide 22 var) [Peptide 22 variation 2 (SEQ ID NO:15)]: the binding result in experiment [5] is on record as “binds”.
With pyrene-KLVFFAEDVGSNKRAIIELMK(pyrene)-NH2 (also called P22 v.1; Peptide 22 var) [Peptide 22 variation 1 (SEQ ID NO:14)], the binding result in experiment [5] is recorded as “binds”.

B2: Peptide 22 (SEQ ID NO:2) (peptide)
peptide: pyrene-KLVFFAEDVGSNKHAIIELMK(pyrene)-NH2
notes: Designed variant of the Aβ 16-35 probe with a salt bridge; also called P22; p22
For B2, the binding result in experiment [6] is listed as “no binding (tested: 4 µM)”; in experiment [7] it was “no binding (tested: 0.3 uM)”.
